Measured values reported in paper PMC11269473, “Monoamine oxidase inhibition properties of 2,1-benzisoxazole derivatives” (Molecular Diversity, 2023).

B1: recombinant human MAO-A (Homo sapiens) (protein)
chain: MENQEKASIAGHMFDVVVIGGGISGLSAAKLLTEYGVSVLVLEARDRVGGRTYTIRNEHVDYVDVGGAYVGPTQNRILRLSKELGIETYKVNVSERLVQYVKGKTYPFRGAFPPVWNPIAYLDYNNLWRTIDNMGKEIPTDAPWEAQHADKWDKMTMKELIDKICWTKTARRFAYLFVNINVTSEPHEVSALWFLWYVKQCGGTTRIFSVTNGGQERKFVGGSGQVSERIMDLLGDQVKLNHPVTHVDQSSDNIIIETLNHEHYECKYVINAIPPTLTAKIHFRPELPAERNQLIQRLPMGAVIKCMMYYKEAFWKKKDYCGCMIIEDEDAPISITLDDTKPDGSLPAIMGFILARKADRLAKLHKEIRKKKICELYAKVLGSQEALHPVHYEEKNWCEEQYSGGCYTAYFPPGIMTQYGRVIRQPVGRIFFAGTETATKWSGYMEGAVEAGERAAREVLNGLGKVTEKDIWVQEPESKDVPAVEITHTFWERNLPSVSGLLKIIGFSTSVTALGFVLYKYKLLPRS
notes: purchased Sigma-Aldrich; host or cells: insect cells (microsomes)
B2: recombinant human MAO-B (Homo sapiens) (protein)
chain: MSNKCDVVVVGGGISGMAAAKLLHDSGLNVVVLEARDRVGGRTYTLRNQKVKYVDLGGSYVGPTQNRILRLAKELGLETYKVNEVERLIHHVKGKSYPFRGPFPPVWNPITYLDHNNFWRTMDDMGREIPSDAPWKAPLAEEWDNMTMKELLDKLCWTESAKQLATLFVNLCVTAETHEVSALWFLWYVKQCGGTTRIISTTNGGQERKFVGGSGQVSERIMDLLGDRVKLERPVIYIDQTRENVLVETLNHEMYEAKYVISAIPPTLGMKIHFNPPLPMMRNQMITRVPLGSVIKCIVYYKEPFWRKKDYCGTMIIDGEEAPVAYTLDDTKPEGNYAAIMGFILAHKARKLARLTKEERLKKLCELYAKVLGSLEALEPVHYEEKNWCEEQYSGGCYTTYFPPGILTQYGRVLRQPVDRIYFAGTETATHWSGYMEGAVEAGERAAREILHAMGKIPEDEIWQSEPESVDVPAQPITTTFLERHLPSVPGLLRLIGLTTIFSATALGFLAHKRGLLVRV
notes: as for B1

How the values were obtained:
[1] = substrate: NCCC(=O)c1ccccc1N; assay: Lineweaver–Burk plots / mode of MAO-A inhibition and Ki; type: biochemical, human; conditions: other: global (shared) fitting of the kinetic data; pH 7.4; 37.0 °C
Experimental: (§1) These two compounds represent potent MAO inhibitors among the study compounds. […] Each line of the Lineweaver–Burk plots was constructed with the kynuramine concentration ranging from 15 to 250 μM.
(§2) The insets are replots of the slopes of the Lineweaver–Burk plots versus inhibitor concentration. The Ki value equals the negative of the x-axis intercept when y = 0
(§3) IC50 values for the inhibition of MAO were measured as described previously. Microsomes from insect cells containing recombinant human MAO-A and MAO-B (5 mg protein/mL) served as enzyme sources (Sigma-Aldrich) while kynuramine was used as non-specific MAO substrate. The enzyme reactions (200 µL reactions prepared in 96-well microtiter plates) contained phosphate buffer (100 mM, pH 7.4), 50 µM kynuramine and the test inhibitors at concentrations of 0.003–100 µM. Stock solutions of the test inhibitors were dissolved in DMSO and added to the enzyme reactions to give a final DMSO concentration of 4% (v/v). […] The concentration of 4-hydroxyquinoline, the product of kynuramine oxidation by MAO, was measured by fluorescence spectrophotometry (λex = 310 nm; λem = 400 nm). […] IC50 values were estimated in triplicate determinations from these plots and are expressed as mean ± standard deviation (SD). […]

[2] = substrate: NCCC(=O)c1ccccc1N; assay: Lineweaver–Burk plots / mode of MAO-B inhibition and Ki; type: biochemical, human; conditions: other: global (shared) fitting of the kinetic data; pH 7.4; 37.0 °C
Experimental: as §1, §2, §3

| Protein | Km [1] | Vmax [1] | Km [2] | Vmax [2] |
| --- | --- | --- | --- | --- |
| B1 | 49.8 ± 3.07 µM | 34.0 ± 0.80 nmol/min.mg protein |  |  |
| B2 |  |  | 32.4 ± 3.73 µM | 8.39 ± 0.28 nmol/min.mg protein |
